In US7008781:

Target: Tie-2 receptor in EAhy926 cells (UniProt Q02763)
Experiment: cell-based or functional assay
Settings: scale: fold molar excess of Ang1*

Sequence of UniProt Q02763 (Q02763 23-1124 limits assumed): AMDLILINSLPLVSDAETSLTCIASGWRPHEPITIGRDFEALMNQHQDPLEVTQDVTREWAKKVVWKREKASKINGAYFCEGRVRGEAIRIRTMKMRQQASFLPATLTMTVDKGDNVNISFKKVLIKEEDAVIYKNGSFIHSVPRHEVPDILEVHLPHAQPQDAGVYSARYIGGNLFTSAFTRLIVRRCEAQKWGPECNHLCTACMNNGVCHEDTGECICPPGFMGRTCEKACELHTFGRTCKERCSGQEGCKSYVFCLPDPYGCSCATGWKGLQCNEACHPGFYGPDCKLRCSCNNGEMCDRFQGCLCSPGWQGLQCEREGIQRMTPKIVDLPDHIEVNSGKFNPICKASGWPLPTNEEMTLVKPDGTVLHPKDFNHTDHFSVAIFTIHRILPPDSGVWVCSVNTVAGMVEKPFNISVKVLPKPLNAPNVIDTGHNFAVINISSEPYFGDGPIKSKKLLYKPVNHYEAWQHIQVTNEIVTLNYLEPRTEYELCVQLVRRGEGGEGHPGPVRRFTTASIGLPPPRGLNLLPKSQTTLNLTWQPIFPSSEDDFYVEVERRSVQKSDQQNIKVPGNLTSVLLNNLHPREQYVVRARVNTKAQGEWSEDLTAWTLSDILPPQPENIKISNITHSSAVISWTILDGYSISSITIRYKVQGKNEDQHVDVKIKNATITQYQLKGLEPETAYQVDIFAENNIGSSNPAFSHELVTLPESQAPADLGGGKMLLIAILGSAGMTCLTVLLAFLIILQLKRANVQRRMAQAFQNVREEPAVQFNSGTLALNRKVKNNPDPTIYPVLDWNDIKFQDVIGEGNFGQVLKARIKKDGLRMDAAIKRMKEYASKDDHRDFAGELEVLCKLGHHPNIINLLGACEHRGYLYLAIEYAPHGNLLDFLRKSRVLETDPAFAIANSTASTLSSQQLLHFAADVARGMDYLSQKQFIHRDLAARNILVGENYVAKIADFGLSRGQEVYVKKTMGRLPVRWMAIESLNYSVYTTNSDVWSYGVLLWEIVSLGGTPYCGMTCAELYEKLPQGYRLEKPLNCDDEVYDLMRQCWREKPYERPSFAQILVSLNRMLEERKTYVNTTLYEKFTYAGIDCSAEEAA

angiopoietin-2 (from UniProt O15123 19-496) (ligand)
block of Ang1*-mediated Tie-2 receptor phosphorylation in EAhy926 cells: > 20
